Measurements from doi:10.1101/2021.01.30.428949 (bioRxiv, 2021).
“And” between values parts separate entries of the source, which are not always exact repeats. Equal values may be shown once. Read-outs that look alike come from different tables or passages of the source. One block for each molecule: values may come before it.

How the values were obtained:
Assay in all cases: mass photometry
[1] = target: At2-CysPRXA C54S variant (Arabidopsis thaliana)
[2] = target: At2-CysPRXA F84R variant (Arabidopsis thaliana)
mass photometry [3] = target: the molecule itself
mass photometry [4] = target: the molecule itself; remark: listed apart in the source
mass photometry [5] = target: the molecule itself; remark: listed apart in the source
mass photometry [6] = target: the molecule itself; remark: listed apart in the source
mass photometry [7] = target: the molecule itself; remark: listed apart in the source

stoichiometry N [1]: 10
Molecule: At2-CysPRXA C54S variant (enzyme)

stoichiometry N [2]: 2 and 4
Molecule: At2-CysPRXA F84R variant (enzyme)

B1: At2-CysPRXA, oxidized (H2O2-treated) (enzyme, Arabidopsis thaliana, UniProt Q96291 66-266, looked up)
chain: KAQADDLPLVGNKAPDFEAEAVFDQEFIKVKLSDYIGKKYVILFFYPLDFTFVCPTEITAFSDRHSEFEKLNTEVLGVSVDSVFSHLAWVQTDRKSGGLGDLNYPLISDVTKSISKSFGVLIHDQGIALRGLFIIDKEGVIQHSTINNLGIGRSVDETMRTLQALQYIQENPDEVCPAGWKPGEKSMKPDPKLSKEYFSAI
modifications: disulfide bond of the peroxidatic cysteine (CysP54) with the resolving cysteine (CysR176)
stoichiometry N (mass photometry [3]): 2

B2: At2-CysPRXA, hyperoxidized (H2O2 plus DTT) (enzyme, Arabidopsis thaliana, UniProt Q96291 66-266, looked up)
chain: B1 chain
modifications: C54 thiol hyperoxidized to a sulfinic acid residue
stoichiometry N (mass photometry [3]): 10

B3: Arabidopsis thaliana 2-Cysteine peroxiredoxin A (At2-CysPRXA), wildtype, reduced (enzyme, UniProt Q96291 66-266, looked up)
chain: B1 chain
ratio of dimer units in the decameric fraction to those in the dimer fraction (mass photometry [4]): ~5 fold
Kd (mass photometry [5]): < 50 nM
stoichiometry N (mass photometry [5]): 20

B4: human peroxiredoxin HsPRX1, reduced (enzyme, UniProt Q06830 1-199, looked up)
chain: MSSGNAKIGHPAPNFKATAVMPDGQFKDISLSDYKGKYVVFFFYPLDFTFVCPTEIIAFSDRAEEFKKLNCQVIGASVDSHFCHLAWVNTPKKQGGLGPMNIPLVSDPKRTIAQDYGVLKADEGISFRGLFIIDDKGILRQITVNDLPVGRSVDETLRLVQAFQFTDKHGEVCPAGWKPGSDTIKPDVQKSKEYFSKQK
stoichiometry N (mass photometry [6]): 10

B5: human peroxiredoxin HsPRX3, reduced (enzyme, UniProt P30048 62-256, looked up)
chain: APAVTQHAPYFKGTAVVNGEFKDLSLDDFKGKYLVLFFYPLDFTFVCPTEIVAFSDKANEFHDVNCEVVAVSVDSHFSHLAWINTPRKNGGLGHMNIALLSDLTKQISRDYGVLLEGSGLALRGLFIIDPNGVIKHLSVNDLPVGRSVEETLRLVKAFQYVETHGEVCPANWTPDSPTIKPSPAASKEYFQKVNQ
stoichiometry N (mass photometry [6]): 2
stoichiometry N (mass photometry [7]): 40 and 20

B6: human peroxiredoxin HsPRX2, reduced (enzyme, UniProt P32119 1-198, looked up)
chain: MASGNARIGKPAPDFKATAVVDGAFKEVKLSDYKGKYVVLFFYPLDFTFVCPTEIIAFSNRAEDFRKLGCEVLGVSVDSQFTHLAWINTPRKEGGLGPLNIPLLADVTRRLSEDYGVLKTDEGIAYRGLFIIDGKGVLRQITVNDLPVGRSVDEALRLVQAFQYTDEHGEVCPAGWKPGSDTIKPNVDDSKEYFSKHN
stoichiometry N (mass photometry [6]): 2
stoichiometry N (mass photometry [7]): 20
